# Test results reported in article PMC6791878, “Evaluation of integrin αvβ6 cystine knot PET tracers to detect cancer and idiopathic pulmonary fibrosis” (Nature Communications, 2019).
# Values joined by “and” are separate entries in the source; they are usually repeats but may differ in a detail not shown here. Identical values can stand only once. Like-named read-outs stand apart in the source and are kept apart here. Where a SMILES comes first, the peptide text is derived from it. Bridges are numbered along the chain shown (N, C = ends). The star is where a group is joined. DOTA = O=C(O)CN1CCN(CC(=O)O)CCN(CC(=O)*)CCN(CC(=O)O)CC1
# Legend:
# pancreatic cancer = assay: [18F]FP-R01-MG-F2 vs [18F]FDG PET/CT in a pancreatic cancer patient (Stanford); details: FDG, 1 hr
# Experimental: The line was flushed with at least 10 ml normal saline after injection. • Blood samples for blood time activity measurements were taken at 1, 3, 5, and 10 min after tracer administration and then at 30-minute intervals for up to 3 h after tracer injection. The counts in whole blood and plasma were measured by gamma counter (Perkin Elmer Wizard 1470). […] The scan was performed over the abdominal region to include the pancreas. Attenuation correction was employed via CT (120 kV, 10 mA). […] The scan was performed over the chest region. Attenuation correction was employed via CT (120 kV, 10 mA). • Static total-body (vertex-to-toe) PET/CT scans were acquired at 60 min and 120 min post injection. CT was performed at 120 kV; it was dose-modulated based on body habitus with current ranging from 10-105 mA for the 60-minute scan. […] EKG data was analyzed to assess changes in overall rhythm of the heart. • On the day of the study, participants were asked to void frequently to reduce radiation exposure. Urine samples were collected at prior to tracer administration (baseline), prior to the static PE scans, at the end of the study day 1, and at the follow up visits 1 day and 7 days after tracer administration.
# Upon co-registration of the PET and CT images, the CT images were used to determine regions of interest for the organs or tissues reported in the manuscript. These ROIs were applied to the PET images of the brain, pituitary gland, breast, lower and upper large intestine, small intestine, stomach, pancreas, heart wall, liver, lung, muscle, red marrow, bone, skin, and thyroid gland. For high uptake organs such as the kidneys, bladder and for the whole body, threshold-based segmentation of PET images were used to determine a close-fitting ROI around the entire organ or whole body. In order to determine accuracy, these PET-derived ROIs were compared to the CT overlay for a close match.
# in vivo = details: female, athymic nude (Nu/Nu), mouse, iv, total radioactivity; for tissue uptake at 2 h: microPET 2 hr; for tissue uptake at 4 h: microPET 4 hr; for tissue uptake at 24 h: microPET 24 hr; for tissue to tissue ratio at 1 h: tumor / muscle, 100 uCi
# Experimental: (§1) Female athymic nude mice, 4–6 weeks old (Charles River), were subcutaneously shoulder-injected with 10^7 cells suspended in 100 µL PBS. Mice were used for imaging and biodistribution studies when xenografted tumors grew to a diameter of ~1 cm.
# (§2) Tumor-bearing Nu/Nu female mice (n = 3 for each probe) were anesthetized using 2% isoflurane in oxygen and injected with ~100 µCi (~0.15 nmol) of the tracers described above via the tail vein. Five-minute static PET scans were acquired on an Inveon PET-CT or Inveon D-PET scanner (Siemens Healthcare, Malvern PA). Images were reconstructed by a two-dimensional ordered expectation maximum subset algorithm and calibrated as described below. ROIs were drawn over the tumor on decay-corrected whole-body images using Inveon Research Workplace (IRW) software (Siemens) or ASIPro VM software (Siemens). ROIs were converted to counts g^−1 min^−1, and %ID g^−1 values were determined assuming a tissue density of 1 g ml^−1.
# (§3) Scanner activity calibration was performed to map between PET image units and units of radioactivity concentration. A preweighed 50-mL centrifuge tube was filled with distilled water and ^64CuCl2 (∼9.3 MBq [∼250 μCi] as determined by the dose calibrator) was used to simulate the whole body of the mouse. This tube was weighed, centered in the scanner aperture, and imaged for a 30-min static image, single bed position. From the sample weight and assuming a density of 1 g ml^−1, the activity concentration in the bottle was calculated in units of μCi mL^−1. Eight planes were acquired in the coronal section. A rectangular region of interest (ROI) (counts/pixel/s) was drawn on the middle of eight coronal planes.
# [1] = test system: αvβ6 expressing BxPC3 pancreatic cancer xenografts; details: for Tumor: αvβ6 (+)
# Experimental: as §1, §2, §3
# [2] = kidney, PET, 1 h p.i., average ± SD, n = 3
# [3] = kidney, microPET 1 hr, individual mice
# [4] = liver, microPET 1 hr, individual mice
# [5] = muscle, PET, 1 h p.i., average ± SD, n = 3
# [6] = muscle, microPET 1 hr, individual mice
# [7] = tumor (BxPC3 xenograft), Tumor avb6(+), microPET 1 hr, individual mice, one line per mouse
# [8] = tumor (BxPC3 xenograft), Tumor avb6(+), individual mice
# [9] = tumor (BxPC3 xenograft, αvβ6 positive), Tumor, PET, 1 h p.i., αvβ6 (+), average ± SD, n = 3
# [10] = PET, 1 h p.i., average ± SD, n = 3
# [11] = microPET 1 hr, individual mice, listed as Ro1-MR DOTA Cu-64
# [12] = microPET 4 hr, individual mice, listed as R01-MR DOTA Cu-64
# [13] = microPET 24 hr, individual mice, listed as R01-MR DOTA Cu-64
# [14] = microPET 4 hr, individual mice, listed as R01-MG DOTA Cu-64
# 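For Tumor avb6(+) in this document: shoulder subcutaneous xenografts near 1 cm, tracer given via tail vein, 5-min static PET, ROI activity on decay-corrected images converted to %ID/g with tissue density taken as 1 g/mL.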
# 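For kidney in this document: shoulder subcutaneous xenografts near 1 cm, tracer given via tail vein, 5-min static PET, ROI activity on decay-corrected images converted to %ID/g with tissue density taken as 1 g/mL.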
# 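For kidney uptake relative to the other two candidates in this document: shoulder subcutaneous xenografts near 1 cm, tracer given via tail vein, 5-min static PET, ROI activity on decay-corrected images converted to %ID/g with tissue density taken as 1 g/mL.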
# 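For tumor in this document: shoulder subcutaneous xenografts near 1 cm, tracer given via tail vein, 5-min static PET, ROI activity on decay-corrected images converted to %ID/g with tissue density taken as 1 g/mL.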
compound,measurement,setting,value
OC[C@H]1O[C@@H](O)[C@H]([18F])[C@@H](O)[C@@H]1O [FDG],"Bl, PET uptake",pancreatic cancer,21.1
same,"Bn, PET uptake",pancreatic cancer,1.4
same,"Br, PET uptake",pancreatic cancer,8.1
same,"Brs, PET uptake",pancreatic cancer,0.32
same,"CA, PET uptake",pancreatic cancer,4.1
same,"HW, PET uptake",pancreatic cancer,2
same,"LLI, PET uptake",pancreatic cancer,2.2
same,"Ln, PET uptake",pancreatic cancer,0.59
same,"Lv, PET uptake",pancreatic cancer,2.9
same,"Ms, PET uptake",pancreatic cancer,0.53
same,"RM, PET uptake",pancreatic cancer,0.29
same,"SI, PET uptake",pancreatic cancer,2.5
same,"Sk, PET uptake",pancreatic cancer,0.38
same,"Sp, PET uptake",pancreatic cancer,2.9
same,"St, PET uptake",pancreatic cancer,0.16
same,"Tr, PET uptake",pancreatic cancer,0.9
same,"ULI, PET uptake",pancreatic cancer,1.8
same,"WB, PET uptake",pancreatic cancer,0.79
"CC[C@H](C)[C@@H]1NC(=O)[C@@H](NC(=O)CNC(=O)CN2CCN(CC(=O)O)CCN(CC(=O)O)CCN(CC(=O)O)CC2)CSSC[C@@H]2NC(=O)[C@H](C)NC(=O)CNC(=O)[C@@H]3CCCN3C(=O)[C@@H]3CSSC[C@@H](C(=O)NCC(N)=O)NC(=O)[C@H](Cc4ccc(O)cc4)NC(=O)CNC(=O)[C@H](CC(N)=O)NC(=O)CNC(=O)[C@H](CCCNC(=N)N)NC(=O)[C@H](CSSC[C@H](NC(=O)[C@H](CCCNC(=N)N)NC(=O)[C@H](Cc4ccccc4)NC(=O)[C@H](CC(C)C)NC(=O)[C@H](CC(C)C)NC(=O)[C@H]([C@@H](C)O)NC(=O)CNC(=O)[C@H](CC(C)C)NC(=O)[C@H](CC(=O)O)NC(=O)[C@H]([C@@H](C)O)NC(=O)[C@H](CCCNC(=N)N)NC(=O)[C@H](CCCNC(=N)N)NC(=O)[C@H](CC(N)=O)NC(=O)[C@H](CC(C)C)NC1=O)C(=O)N[C@@H](CCCNC(=N)N)C(=O)N[C@@H](CCCNC(=N)N)C(=O)N[C@@H](CC(=O)O)C(=O)N[C@@H](CO)C(=O)N[C@@H](CC(=O)O)C(=O)N3)NC(=O)[C@H]([C@@H](C)CC)NC2=O [[^64Cu]DOTA-R01-MR, metal not drawn] ({DOTA}-GCILNRRTDLGTLLFRCRRDSDCPGACICRGNGYCG-NH2; disulfide 2-27, 17-29, 23-35)",tissue uptake at 1 h,in vivo; [2],90 ± 3.64 %ID/g
same,tissue uptake at 1 h,in vivo; [3],94 %ID/g
same,tissue uptake at 2 h,"in vivo; kidney, individual mice",90.5 %ID/g
same,tissue uptake at 4 h,"in vivo; kidney, individual mice",82.3 %ID/g
same,tissue uptake at 24 h,"in vivo; kidney, individual mice",37.8 %ID/g
same,tissue uptake at 1 h,"in vivo; liver, PET, 1 h p.i., average ± SD, n = 3",4.63 ± 0.09 %ID/g
same,tissue uptake at 1 h,in vivo; [4],4.66 %ID/g
same,tissue uptake at 2 h,"in vivo; liver, individual mice",3.9 %ID/g
same,tissue uptake at 4 h,"in vivo; liver, individual mice",3.44 %ID/g
same,tissue uptake at 24 h,"in vivo; liver, individual mice",6.99 %ID/g
same,tissue uptake at 1 h,in vivo; [5],0.536 ± 0.004 %ID/g
same,tissue uptake at 1 h,in vivo; [6],0.533 %ID/g
same,tissue uptake at 2 h,"in vivo; muscle, individual mice",0.516 %ID/g
same,tissue uptake at 4 h,"in vivo; muscle, individual mice",0.467 %ID/g
same,tissue uptake at 24 h,"in vivo; muscle, individual mice",0.513 %ID/g
same,tissue uptake at 1 h,in vivo; [7],3.27 %ID/g
same,tissue uptake at 2 h,in vivo; [8],3.46 %ID/g
same,tissue uptake at 4 h,in vivo; [8],2.55 %ID/g
same,tissue uptake at 24 h,in vivo; [8],3.2 %ID/g
same,tissue uptake at 1 h,in vivo; [9],3.45 ± 0.34 %ID/g
same,tissue to tissue ratio at 1 h,in vivo,6.43 ± 0.58
same,kidney uptake relative to the other two candidates,[1]; 1 h p.i.,~ 3 fold
same,Tumor,[1]; [10],~ 3 %ID g^−1
same,Kidney,[1]; [10],~ 90 %ID g^−1
same,Tumor avb6(+),"[1]; microPET 1 hr, individual mice, one line per mouse, listed as Ro1-MR DOTA Cu-64",3.249 %ID/g
same,Liver,[1]; [11],4.713 %ID/g
same,Muscle,[1]; [11],0.5407 %ID/g and 0.5349 %ID/g
same,Muscle,"[1]; microPET 2 hr, individual mice, listed as R01-MR DOTA Cu-64",0.5174 %ID/g
same,Kidney,[1]; [12],82.8 %ID/g
same,Liver,[1]; [12],4.22 %ID/g
same,Muscle,[1]; [12],0.4687 %ID/g
same,Kidney,[1]; [13],38.15 %ID/g
same,Muscle,[1]; [13],0.5142 %ID/g
same,Tumor avb6(+),[1]; [13],3.535 %ID/g
"CC[C@H](C)[C@@H]1NC(=O)[C@@H](NC(=O)CNC(=O)CN2CCN(CC(=O)O)CCN(CC(=O)O)CCN(CC(=O)O)CC2)CSSC[C@@H]2NC(=O)[C@H](C)NC(=O)CNC(=O)[C@@H]3CCCN3C(=O)[C@@H]3CSSC[C@@H](C(=O)NCC(N)=O)NC(=O)[C@H](Cc4ccc(O)cc4)NC(=O)CNC(=O)[C@H](CC(N)=O)NC(=O)CNC(=O)[C@H](CCCNC(=N)N)NC(=O)[C@H](CSSC[C@H](NC(=O)[C@H](CCCNC(=N)N)NC(=O)[C@H](Cc4ccccc4)NC(=O)[C@H](CC(C)C)NC(=O)[C@H](CC(C)C)NC(=O)[C@H]([C@@H](C)O)NC(=O)CNC(=O)[C@H](CC(C)C)NC(=O)[C@H](CC(=O)O)NC(=O)[C@H]([C@@H](C)O)NC(=O)[C@H](CCCNC(=N)N)NC(=O)CNC(=O)[C@H](CC(N)=O)NC(=O)[C@H](CC(C)C)NC1=O)C(=O)N[C@@H](CCCNC(=N)N)C(=O)N[C@@H](CCCNC(=N)N)C(=O)N[C@@H](CC(=O)O)C(=O)N[C@@H](CO)C(=O)N[C@@H](CC(=O)O)C(=O)N3)NC(=O)[C@H]([C@@H](C)CC)NC2=O [[^64Cu]DOTA-R01-MG, metal not drawn]",tissue uptake at 1 h,in vivo; [2],28.4 ± 2.61 %ID/g
same,tissue uptake at 1 h,in vivo; [3],25.3 %ID/g
same,tissue uptake at 2 h,"in vivo; kidney, individual mice",26.9 %ID/g
same,tissue uptake at 4 h,"in vivo; kidney, individual mice",25.6 %ID/g
same,tissue uptake at 24 h,"in vivo; kidney, individual mice",10.8 %ID/g
same,tissue uptake at 1 h,in vivo; [4],1.77 %ID/g
same,tissue uptake at 2 h,"in vivo; liver, individual mice",2.38 %ID/g
same,tissue uptake at 4 h,"in vivo; liver, individual mice",2.4 %ID/g
same,tissue uptake at 24 h,"in vivo; liver, individual mice",3.39 %ID/g
same,tissue uptake at 1 h,in vivo; [5],0.472 ± 0.003 %ID/g
same,tissue uptake at 1 h,in vivo; [6],0.471 %ID/g
same,tissue uptake at 2 h,"in vivo; muscle, individual mice",0.398 %ID/g
same,tissue uptake at 4 h,"in vivo; muscle, individual mice",0.385 %ID/g
same,tissue uptake at 24 h,"in vivo; muscle, individual mice",0.394 %ID/g
same,tissue uptake at 1 h,in vivo; [7],2.93 %ID/g
same,tissue uptake at 2 h,in vivo; [8],2.27 %ID/g
same,tissue uptake at 4 h,in vivo; [8],2.22 %ID/g
same,tissue uptake at 24 h,in vivo; [8],2.52 %ID/g
same,tissue uptake at 1 h,in vivo; [9],2.74 ± 0.35 %ID/g
same,tissue to tissue ratio at 1 h,in vivo,5.8 ± 0.72
same,Tumor,[1]; [10],~ 3 %ID g^−1
same,Kidney,[1]; [10],~ 30 %ID g^−1
same,Liver,[1]; [10],2.14 ± 0.38 % injected dose gram^−1
same,Tumor avb6(+),"[1]; microPET 1 hr, individual mice, one line per mouse, listed as Ro1-MG DOTA Cu-64",2.952 %ID/g
same,Muscle,"[1]; microPET 1 hr, individual mice, listed as Ro1-MG DOTA Cu-64",0.4707 %ID/g
same,Muscle,"[1]; microPET 2 hr, individual mice, listed as R01-MG DOTA Cu-64",0.4023 %ID/g and 0.398 %ID/g
same,Liver,[1]; [14],2.382 %ID/g
same,Muscle,[1]; [14],0.3296 %ID/g
same,Muscle,"[1]; microPET 24 hr, individual mice, listed as R01-MG DOTA Cu-64",0.3985 %ID/g and 0.3942 %ID/g
